Experiments:
MUC1 (human) [1] = biological target: MUC1 (human) (UniProt P15941); experiment: surface staining, flow cytometry, primary breast cancer patient cells RG563999; 2 µg antibody/sample
MUC1 (human) [2] = biological target: MUC1 (human) (UniProt P15941); experiment: flow cytometry, U266/Con siRNA cells (MUC1-positive)
MUC1 (human) [3] = biological target: MUC1 (human) (UniProt P15941); experiment: surface staining, flow cytometry, primary breast cancer patient cells JB564765; 2 µg antibody/sample
MUC1 (human) [4] = biological target: MUC1 (human) (UniProt P15941); experiment: surface staining, flow cytometry, ZR-75-1 cells; 2 µg antibody/sample
MUC1 (human) [5] = biological target: MUC1 (human) (UniProt P15941); experiment: surface staining, flow cytometry, K562 MUC1-siRNA cells (MUC1 silenced); 2 µg antibody/sample
MUC1 (human) [6] = biological target: MUC1 (human) (UniProt P15941); experiment: surface staining, flow cytometry, U266 CTL-siRNA cells; 2 µg antibody/sample
MUC1 (human) [7] = biological target: MUC1 (human) (UniProt P15941); experiment: flow cytometry, U266/MUC1siRNA cells (MUC1 silenced, labelled MUC1-negative)
MUC1 (human) [8] = biological target: MUC1 (human) (UniProt P15941); experiment: surface staining, flow cytometry, MOLM-14 cells; 2 µg antibody/sample, PE-conjugated goat anti-mouse 2nd antibody
MUC1 (human) [9] = biological target: MUC1 (human) (UniProt P15941); experiment: flow cytometry, K562/MUC1siRNA cells (MUC1 silenced, labelled MUC1-negative)
MUC1 (human) [10] = biological target: MUC1 (human) (UniProt P15941); experiment: surface staining, flow cytometry, RPMI8266 cells; 2 µg antibody/sample
MUC1 (human) [11] = biological target: MUC1 (human) (UniProt P15941); experiment: surface staining, flow cytometry, KU812 CTL-siRNA cells; 2 µg antibody/sample
MUC1 (human) [12] = biological target: MUC1 (human) (UniProt P15941); experiment: surface staining, flow cytometry, primary breast cancer patient cells RG563999 (second row); 2 µg antibody/sample
MUC1 (human) [13] = biological target: MUC1 (human) (UniProt P15941); experiment: surface staining, flow cytometry, U266 MUC1-siRNA cells (MUC1 silenced); 2 µg antibody/sample
MUC1 (human) [14] = biological target: MUC1 (human) (UniProt P15941); experiment: surface staining, flow cytometry, ZR-75-1 cells (second row); 2 µg antibody/sample
MUC1 (human) [15] = biological target: MUC1 (human) (UniProt P15941); experiment: surface staining, flow cytometry, KU812 CML cells; 2 µg antibody/sample
MUC1 (human) [16] = biological target: MUC1 (human) (UniProt P15941); experiment: flow cytometry, KU812/MUC1siRNA cells (MUC1 silenced, labelled MUC1-negative)
MUC1 (human) [17] = biological target: MUC1 (human) (UniProt P15941); experiment: surface staining, flow cytometry, MV4-11 cells; 2 µg antibody/sample
MUC1 (human) [18] = biological target: MUC1 (human) (UniProt P15941); experiment: flow cytometry, K562/Con siRNA cells (MUC1-positive)
MUC1 (human) [19] = biological target: MUC1 (human) (UniProt P15941); experiment: surface staining, flow cytometry, ME559203 cells; 2 µg antibody/sample
MUC1 (human) [20] = biological target: MUC1 (human) (UniProt P15941); experiment: flow cytometry, KU812/Con siRNA cells (MUC1-Positive)
MUC1 (human) [21] = biological target: MUC1 (human) (UniProt P15941); experiment: surface staining, flow cytometry, KU812 CTL-siRNA cells (second block); 2 µg antibody/sample
MUC1 (human) [22] = biological target: MUC1 (human) (UniProt P15941); experiment: surface staining, flow cytometry, KU812 MUC1-siRNA cells (MUC1 silenced, second block); 2 µg antibody/sample
MUC1 (human) [23] = biological target: MUC1 (human) (UniProt P15941); experiment: surface staining, flow cytometry, U266 cells; 2 µg antibody/sample
MUC1 (human) [24] = biological target: MUC1 (human) (UniProt P15941); experiment: surface staining, flow cytometry, U266 CTL-siRNA cells (second block); 2 µg antibody/sample
MUC1 (human) [25] = biological target: MUC1 (human) (UniProt P15941); experiment: surface staining, flow cytometry, KU812 cells; 2 µg antibody/sample
MUC1 (human) [26] = biological target: MUC1 (human) (UniProt P15941); experiment: surface staining, flow cytometry, K562 cells; 2 µg antibody/sample
MUC1 (human) [27] = biological target: MUC1 (human) (UniProt P15941); experiment: surface staining, flow cytometry, U266 MUC1-siRNA cells (MUC1 silenced, second block); 2 µg antibody/sample
MUC1 (human) [28] = biological target: MUC1 (human) (UniProt P15941); experiment: surface staining, flow cytometry, K562 CML cells; 2 µg antibody/sample
MUC1 (human) [29] = biological target: MUC1 (human) (UniProt P15941); experiment: surface staining, flow cytometry, ZR-75-1 cells (third row); 2 µg antibody/sample
MUC1 (human) [30] = biological target: MUC1 (human) (UniProt P15941); experiment: surface staining, flow cytometry, KU812 MUC1-siRNA cells (MUC1 silenced); 2 µg antibody/sample
MUC1 (human) [31] = biological target: MUC1 (human) (UniProt P15941); experiment: surface staining, flow cytometry, K562 CTL-siRNA cells; 2 µg antibody/sample; fixed samples kept at 4° C. for 4 days
MUC1 (human) [32] = biological target: MUC1 (human) (UniProt P15941); experiment: surface staining, flow cytometry, KMS28PE cells; 2 µg antibody/sample

Sequence of MUC1 (human) (P15941 24-1255): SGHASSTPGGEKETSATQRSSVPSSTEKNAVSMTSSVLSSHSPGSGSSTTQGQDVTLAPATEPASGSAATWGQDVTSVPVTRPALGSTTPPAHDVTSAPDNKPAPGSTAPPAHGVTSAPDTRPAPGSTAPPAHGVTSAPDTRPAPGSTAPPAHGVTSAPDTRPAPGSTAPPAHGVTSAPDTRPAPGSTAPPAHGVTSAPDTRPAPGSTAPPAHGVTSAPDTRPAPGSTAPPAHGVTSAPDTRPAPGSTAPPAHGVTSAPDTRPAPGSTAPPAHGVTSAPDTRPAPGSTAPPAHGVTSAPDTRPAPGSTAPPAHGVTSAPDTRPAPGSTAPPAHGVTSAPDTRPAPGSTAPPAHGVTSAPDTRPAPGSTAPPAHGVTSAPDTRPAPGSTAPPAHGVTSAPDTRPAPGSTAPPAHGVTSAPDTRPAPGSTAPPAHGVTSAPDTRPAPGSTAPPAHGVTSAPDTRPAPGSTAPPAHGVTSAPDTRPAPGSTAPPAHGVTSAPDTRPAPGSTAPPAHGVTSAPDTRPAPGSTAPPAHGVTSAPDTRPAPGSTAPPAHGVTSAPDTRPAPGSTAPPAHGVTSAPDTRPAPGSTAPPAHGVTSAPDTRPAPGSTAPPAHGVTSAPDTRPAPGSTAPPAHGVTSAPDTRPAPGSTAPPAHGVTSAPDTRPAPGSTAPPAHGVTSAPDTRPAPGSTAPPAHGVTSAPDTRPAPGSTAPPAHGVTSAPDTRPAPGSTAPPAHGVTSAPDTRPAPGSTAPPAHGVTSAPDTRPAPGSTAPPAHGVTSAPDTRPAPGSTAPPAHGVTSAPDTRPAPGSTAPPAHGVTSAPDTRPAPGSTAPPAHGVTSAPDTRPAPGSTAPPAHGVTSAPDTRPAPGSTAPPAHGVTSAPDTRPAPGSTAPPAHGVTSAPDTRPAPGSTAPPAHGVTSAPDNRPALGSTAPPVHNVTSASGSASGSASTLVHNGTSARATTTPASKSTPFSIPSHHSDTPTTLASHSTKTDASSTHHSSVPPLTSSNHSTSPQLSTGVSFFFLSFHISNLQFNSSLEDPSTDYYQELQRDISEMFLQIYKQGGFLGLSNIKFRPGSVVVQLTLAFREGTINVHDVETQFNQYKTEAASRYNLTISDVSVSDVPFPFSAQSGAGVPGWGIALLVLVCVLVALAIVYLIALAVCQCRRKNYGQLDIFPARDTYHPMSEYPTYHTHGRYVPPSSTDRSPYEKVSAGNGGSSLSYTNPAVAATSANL

flow cytometry value (unit not given) (MUC1 (human) [1]): 60.5
flow cytometry value (unit not given) (MUC1 (human) [2]): 94.7
flow cytometry value (unit not given) (MUC1 (human) [3]): 21.1
flow cytometry value (unit not given) (MUC1 (human) [4]): 98.5
flow cytometry value (unit not given) (MUC1 (human) [5]): 17.1
flow cytometry value (unit not given) (MUC1 (human) [6]): 94.7
flow cytometry value (unit not given) (MUC1 (human) [7]): 13.5
flow cytometry value (unit not given) (MUC1 (human) [8]): 99.5
flow cytometry value (unit not given) (MUC1 (human) [9]): 17.1
flow cytometry value (unit not given) (MUC1 (human) [10]): 95
flow cytometry value (unit not given) (MUC1 (human) [11]): 96.6
flow cytometry value (unit not given) (MUC1 (human) [12]): 11.9
flow cytometry value (unit not given) (MUC1 (human) [13]): 16.2
flow cytometry value (unit not given) (MUC1 (human) [14]): 6.84
flow cytometry value (unit not given) (MUC1 (human) [15]): 90.5
flow cytometry value (unit not given) (MUC1 (human) [16]): 35.4
flow cytometry value (unit not given) (MUC1 (human) [17]): 74.2
flow cytometry value (unit not given) (MUC1 (human) [18]): 40.6
flow cytometry value (unit not given) (MUC1 (human) [19]): 57
flow cytometry value (unit not given) (MUC1 (human) [20]): 95.2
flow cytometry value (unit not given) (MUC1 (human) [21]): 95.2
flow cytometry value (unit not given) (MUC1 (human) [22]): 85.4
flow cytometry value (unit not given) (MUC1 (human) [23]): 99.2
flow cytometry value (unit not given) (MUC1 (human) [24]): 96.5
flow cytometry value (unit not given) (MUC1 (human) [25]): 98.1
flow cytometry value (unit not given) (MUC1 (human) [26]): 78.8
flow cytometry value (unit not given) (MUC1 (human) [27]): 13.5
flow cytometry value (unit not given) (MUC1 (human) [28]): 77.9
flow cytometry value (unit not given) (MUC1 (human) [29]): 89.5
flow cytometry value (unit not given) (MUC1 (human) [30]): 69.2
flow cytometry value (unit not given) (MUC1 (human) [31]): 40.6
flow cytometry value (unit not given) (MUC1 (human) [32]): 58.2
Substance: DF3 (antibody)

Reference: patent US20160340442A1
